Target: Rif1 1709-1916 (UniProt P29539)
Assay: GST pull-down from yeast lysate
Conditions: reference: wild type; sites S731

binding against the reference: weaker
Substance: Rap1 (from UniProt P11938) S731A

Reference: article PMC5737367
